This is an account of results in the supplement of paper PMC9112550, “Optimization of the antimicrobial peptide Bac7 by deep mutational scanning” (BMC Biology, 2022).

The data set concerns Escherichia coli TOP10. Put plainly: shrunken log2 fold change of peptide-encoding DNA abundance (4.5 h post-induction vs induction); higher = less antimicrobial activity (less host growth inhibition). The note with it: time post-induction: 4.5 h; library: site-saturation at positions 5, 18, 19, 20.
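Further: peptides expressed intracellularly from a pBAD plasmid library in pooled LB shake-flask culture, induced with 0.3% L-arabinose, DNA abundance read by NGS, three biological replicates, DESeq2 with apeglm shrinkage.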

As to RRIRYRPPRLPRPRPRPEFTPRP, the “shrunken log2 fold change” value is -0.0369. As to RRIRIRPPRLPRPRPRPQTPPRP, the “shrunken log2 fold change” value was -0.0927. Turning to RRIRQRPPRLPRPRPRPCTMPRP, the “shrunken log2 fold change” value was -0.804.

In the case of RRIRERPPRLPRPRPRPVHHPRP, the “shrunken log2 fold change” value was -0.954. In the case of RRIRERPPRLPRPRPRPRSGPRP, the “shrunken log2 fold change” value was -0.049.

RRIRVRPPRLPRPRPRPIHSPRP: the “shrunken log2 fold change” value is -0.252. Under RRIRDRPPRLPRPRPRPNDRPRP stands -0.12; under RRIRQRPPRLPRPRPRPHQVPRP, -0.253; under RRIRDRPPRLPRPRPRPSFEPRP, 0.495. With RRIRLRPPRLPRPRPRPFSRPRP, the “shrunken log2 fold change” value is -0.199.

With RRIRKRPPRLPRPRPRPDEMPRP, the “shrunken log2 fold change” value came out at 0.188. Take RRIRCRPPRLPRPRPRPLEDPRP: the “shrunken log2 fold change” value came to 0.0306.

RRIRHRPPRLPRPRPRPTQLPRP: the “shrunken log2 fold change” value was found to be 0.278. As for RRIRNRPPRLPRPRPRPELHPRP, the “shrunken log2 fold change” value was determined as 0.102.

As to RRIRIRPPRLPRPRPRPKKEPRP, the “shrunken log2 fold change” value is -0.438.

Take RRIRNRPPRLPRPRPRPMCQPRP: the “shrunken log2 fold change” value was -0.0153. With RRIRMRPPRLPRPRPRPDPRPRP, the “shrunken log2 fold change” value was found to be 0.104. For the sequence RRIRMRPPRLPRPRPRPFEQPRP, the “shrunken log2 fold change” value is 0.0263.

As to RRIRVRPPRLPRPRPRPKEHPRP, the “shrunken log2 fold change” value was 0.0755.

As to RRIRIRPPRLPRPRPRPRCAPRP, the “shrunken log2 fold change” value stood at 0.204. For RRIRGRPPRLPRPRPRPSMVPRP, the “shrunken log2 fold change” value worked out at 0.512. On to RRIRNRPPRLPRPRPRPYFLPRP, for which the “shrunken log2 fold change” value is -0.897.

Turning to RRIRARPPRLPRPRPRPMHCPRP, the “shrunken log2 fold change” value was 0.0899. With RRIRNRPPRLPRPRPRPFAGPRP, the “shrunken log2 fold change” value was found to be 0.0411. As to RRIRYRPPRLPRPRPRPLHFPRP, the “shrunken log2 fold change” value was -0.0434. Under RRIRRRPPRLPRPRPRPHYDPRP stands -0.124. With RRIRRRPPRLPRPRPRPNIIPRP, the “shrunken log2 fold change” value is -0.0888.

Regarding RRIRMRPPRLPRPRPRPWVWPRP, the “shrunken log2 fold change” value was found to be 0.169. Regarding RRIRHRPPRLPRPRPRPDICPRP, the “shrunken log2 fold change” value is -0.622.

As for RRIRTRPPRLPRPRPRPPPQPRP, the “shrunken log2 fold change” value was determined as 0.848.

RRIRVRPPRLPRPRPRPLKSPRP: the “shrunken log2 fold change” value was -0.137. With RRIRGRPPRLPRPRPRPKVYPRP, the “shrunken log2 fold change” value is -0.0773.

RRIRERPPRLPRPRPRPPCPPRP: the “shrunken log2 fold change” value came to 1.27.

As for RRIRHRPPRLPRPRPRPHMTPRP, the “shrunken log2 fold change” value was -0.0109.

Take RRIRNRPPRLPRPRPRPSQSPRP: the “shrunken log2 fold change” value is -0.169.

For RRIRFRPPRLPRPRPRPYNIPRP, the “shrunken log2 fold change” value is -0.181. As for RRIRTRPPRLPRPRPRPAVQPRP, the figure is 0.0481; as for RRIRTRPPRLPRPRPRPKENPRP, 0.15. RRIRLRPPRLPRPRPRPGWMPRP: the “shrunken log2 fold change” value was determined as 0.0923. Turning to RRIRNRPPRLPRPRPRPRQHPRP, the “shrunken log2 fold change” value is -0.103. For the sequence RRIRSRPPRLPRPRPRPFTGPRP, the “shrunken log2 fold change” value is -0.261. Under RRIRRRPPRLPRPRPRPPLGPRP stands 0.998; under RRIRVRPPRLPRPRPRPQWEPRP, 0.0101.

Regarding RRIRSRPPRLPRPRPRPHCHPRP, the “shrunken log2 fold change” value was -0.783.

Regarding RRIRVRPPRLPRPRPRPTPLPRP, the “shrunken log2 fold change” value came to 0.251.

On to RRIRFRPPRLPRPRPRPTGNPRP, for which the “shrunken log2 fold change” value is -0.245. As for RRIRERPPRLPRPRPRPGAWPRP, the figure is -0.0396; as for RRIRNRPPRLPRPRPRPSWWPRP, 0.28; as for RRIRLRPPRLPRPRPRPAYCPRP, -0.088. On to RRIRKRPPRLPRPRPRPSKPPRP, for which the “shrunken log2 fold change” value turned out to be 0.0859. On to RRIRQRPPRLPRPRPRPLGCPRP, for which the “shrunken log2 fold change” value is -0.0282.

As to RRIRCRPPRLPRPRPRPKLVPRP, the “shrunken log2 fold change” value is -0.152. As for RRIRQRPPRLPRPRPRPGMDPRP, the figure is 0.342; as for RRIRLRPPRLPRPRPRPVVNPRP, -0.0535. As to RRIRARPPRLPRPRPRPLPKPRP, the “shrunken log2 fold change” value was 0.748. In the case of RRIRTRPPRLPRPRPRPCLLPRP, the “shrunken log2 fold change” value is -0.413. Under RRIRLRPPRLPRPRPRPCDHPRP stands -0.239. Consider RRIRKRPPRLPRPRPRPIEFPRP, for which the “shrunken log2 fold change” value is 0.0427. With RRIRNRPPRLPRPRPRPTPDPRP, the “shrunken log2 fold change” value came out at 0.17. RRIRCRPPRLPRPRPRPWWVPRP: the “shrunken log2 fold change” value is -0.208. For the sequence RRIRSRPPRLPRPRPRPTNQPRP, the “shrunken log2 fold change” value was -0.311. Turning to RRIRGRPPRLPRPRPRPHCYPRP, the “shrunken log2 fold change” value turned out to be 0.0539. As for RRIRQRPPRLPRPRPRPQANPRP, the figure is -0.165; as for RRIRYRPPRLPRPRPRPHISPRP, -0.317. Take RRIRNRPPRLPRPRPRPDNNPRP: the “shrunken log2 fold change” value was -0.187. Turning to RRIRPRPPRLPRPRPRPVFGPRP, the “shrunken log2 fold change” value turned out to be 0.206.

Take RRIRHRPPRLPRPRPRPGDPPRP: the “shrunken log2 fold change” value was found to be 0.219.

As for RRIRARPPRLPRPRPRPIISPRP, the “shrunken log2 fold change” value is -0.129. Regarding RRIRYRPPRLPRPRPRPAQCPRP, the “shrunken log2 fold change” value was -0.0254. Consider RRIRLRPPRLPRPRPRPARNPRP, for which the “shrunken log2 fold change” value came to 0.483. On to RRIRLRPPRLPRPRPRPHQLPRP, for which the “shrunken log2 fold change” value was -0.25. As to RRIRERPPRLPRPRPRPGGTPRP, the “shrunken log2 fold change” value is -0.215.

Consider RRIRARPPRLPRPRPRPMKVPRP, for which the “shrunken log2 fold change” value is -0.0785. As to RRIRERPPRLPRPRPRPIGKPRP, the “shrunken log2 fold change” value was found to be 0.133. Consider RRIRMRPPRLPRPRPRPLTVPRP, for which the “shrunken log2 fold change” value was determined as 0.169. On to RRIRYRPPRLPRPRPRPELDPRP, for which the “shrunken log2 fold change” value is -0.165.

Consider RRIRPRPPRLPRPRPRPIYRPRP, for which the “shrunken log2 fold change” value is -0.158. RRIRHRPPRLPRPRPRPKTTPRP: the “shrunken log2 fold change” value was -0.052. RRIRYRPPRLPRPRPRPLSKPRP: the “shrunken log2 fold change” value was -1.03. Take RRIRMRPPRLPRPRPRPSRLPRP: the “shrunken log2 fold change” value was found to be 0.19. With RRIRQRPPRLPRPRPRPIWIPRP, the “shrunken log2 fold change” value was -0.206. Regarding RRIRARPPRLPRPRPRPWHHPRP, the “shrunken log2 fold change” value is -0.168. As for RRIRYRPPRLPRPRPRPLHNPRP, the figure is -0.507. For the sequence RRIRRRPPRLPRPRPRPPANPRP, the “shrunken log2 fold change” value was determined as 0.731. As for RRIRQRPPRLPRPRPRPPSYPRP, the figure is -0.0228; as for RRIRVRPPRLPRPRPRPRCHPRP, 0.115.

As to RRIRHRPPRLPRPRPRPVAEPRP, the “shrunken log2 fold change” value amounted to 0.232. On to RRIRHRPPRLPRPRPRPRPYPRP, for which the “shrunken log2 fold change” value is 0.0624. On to RRIRIRPPRLPRPRPRPIGKPRP, for which the “shrunken log2 fold change” value was -0.13. RRIRLRPPRLPRPRPRPNKSPRP: the “shrunken log2 fold change” value is -0.354. Turning to RRIRMRPPRLPRPRPRPMPFPRP, the “shrunken log2 fold change” value stood at 0.221.
